Broadly, the Kd is the concentration at which binding is half-saturated. Higher therefore signals a looser complex.

This data set relates to Irr (Rhodobacter sphaeroides 2.4.1). The experiment in a line: EMSA. The following applies: Mn2+ favored complex formation (1 mM MnCl2); Mn2+ in Kd assay not stated; EMSA: 20 mM TB pH 7.8, 5% glycerol, 1 mM DTT, 1 ug salmon sperm DNA, 0.1 mg/ml BSA, with or without 1 mM MnCl2, 15 ul, ~3 fmol probe, 30 min at 32 C; 6% PAGE ….

Regarding ccpA upstream region, the dissociation constant Kd was 900 nM. The result for mbfA upstream region reads 800 nM.

(Values after article PMC3413700.)
